Test results taken from patent US20040001839A1, “Multimers - isolated molecules comprising epitopes containing sulfated moieties, antibodies to such epitopes, and uses thereof” (priority 2000, published 2004).

B1: S-S Y1 dimer: disulfide bridge dimer of Y1 scFv compared with CONY1 and Y1-IgG in Example 12 (protein)
scFv 1: MEVQLVESGGGVVRPGGSLRLSCAASGFTFDDYGMSWVRQAPGKGLEWVSGINWNGGSTGYADSVKGRFTISRDNAKNSLYLQMNSLRAEDTAVYYCARMRAPVIWGQGTLVTVSRGGGGSGGGGSGGGGSSELTQDPAVSVALGQTVRITCQGDSLRSYYASWYQQKPGQAPVLVIYGKNNRPSGIPDRFSGSSSGNTASLTITGAQAEDEADYYCNSRDSSGNHVVFGGGTKLTVLGGGGCKAK
scFv 2: B1 scFv 1
B2: CONY1: scFv derived from Y1 scFv, myc tag replaced by lysine, alanine, lysine (KAK); SEQ ID NO:204 (protein, listed as Homo sapiens)
scFv: MKYLLPTAAAGLLLLAAQPAMAEVQLVESGGGVVRPGGSLRLSCAASGFTFDDYGMSWVRQAPGKGLEWVSGINWNGGSTGYADSVKGRFTISRDNAKNSLYLQMNSLRAEDTAVYYCARMRAPVIWGQGTLVTVSRGGGGSGGGGSGGGGSSELTQDPAVSVALGQTVRITCQGDSLRSYYASWYQQKPGQAPVLVIYGKNNRPSGIPDRFSGSSSGNTASLTITGAQAEDEADYYCNSRDSSGNHVVFGGGTKLTVLGAAAKAK

Key:
[1] = tested on: KG-1 cells; assay: Radioreceptor binding assay with KG-1 cells; set-up: species or system human; settings: 2 ng/tube 125I-Y1-IgG tracer
Experimental: The assay system involved the use of radioactive ligands that were prepared by iodination with ^125I using chloramine T on the Y1-IgG construct or the Bolton-Hunter (CONY1) reagent. The assay tubes contained 5×10^6 KG-1 cells per 0.2 ml and a labeled tracer with varying amounts of unlabeled competitor, in PBS+0.1% BSA, pH 7.4. After one hour incubation with agitation at 4° C., the cells were thoroughly washed with cold buffer and taken for radioactivity counting.
For the radio receptor binding assay (RRA), 2 ng/tube of ^125I-Y1-IgG was used, and competition was performed with each of the three molecules. […] A rough estimate of the affinity of the Y1-IgG in this experiment is 2×10^−8 M. The corresponding affinity of the dimer is, therefore, 4×10^−8 M.
In a second RRA using labeled CONY1, a 100 ng/tube of ^125I-Y1-IgG was used, and competition was performed with each of the three molecules. […] A rough estimate of the affinity of CONY 1 in this experiment is 10^−6M. The corresponding affinity of the dimer is, therefore, 5×10^−8 M.

[2] = Pharmacokinetics of 125I-CONY1 after intravenous injection in mice; format: in vivo, Balb-C mice; settings: 15 μg per mouse i.v.; plasma TCA-precipitable radioactivity, two-compartment model
Experimental: Two to four mice were used per time point. […] Organ/tissue total and specific radioactivity values were calculated.

[3] = tested on: MOLT-4 cells; assay: T-ALL (MOLT4) model in SCID mice; format: in vivo
Experimental: The in vivo mouse model for T-ALL uses SCID mice (Jackson Laboratories) injected with MOLT4 cells derived from a T cell leukemia patient.
In one experiment, SCID mice were pretreated with 100 mg/kg Cytoxan (CTX, Cyclophosphamid for injection, Mead Johnson). Eleven days after CTX injection, MOLT-4 cells were injected intravenously into the tail vein. Control mice were injected with PBS alone. One week post-MOLT-4 injection mice were injected with CONY1-Doxorubicin, which is a conjugate between scFv CON Y1 polypeptide, having KAK amino acid residues at its carboxy end and doxorubicin via a short organic linker; CONY1, which is a scFv antibody fragment derived from Y1 scFv in which the DNA sequences encoding the myc tag of Y1 were deleted and replaced with a DNA sequence encoding the amino acids lysine, alanine, lysine (KAK); or free Doxorubicin. The mice were injected three times per week for three weeks. […] (Table M).
Mice started to die 32 days post cell inoculation, and the surviving mice were sacrificed at this time. Bone marrow cells were analyzed by flow cytometry using anti-human CD44-FITC and Y1-Biotin/SAV-PE. Blood samples from several animals were monitored for platelet and white blood cell count. Livers were weighted and examined for tumor appearance. Other organs were also examined for tumor appearance.
In a second experiment, SCID mice were i.v. injected with 2×10^7 MOLT-4 cells/mouse, 5 days post treatment with cyclophosphamide. Anti-cancer agents or PBS (negative control animals) were injected i.v. three times/week from day 5 post MOLT-4 cells injection and onward. On day 35, blood was drawn from the animals, the animals were sacrificed, and their livers were excised and weighed. In the untreated, PBS-treated MOLT-4 cell-bearing animals, the liver presented with a very massive tumor growth, and its size was increased 2-3-fold relative to PBS control uninfected animals. In this experiment, there were five treatment groups:
In parallel, portions of liver tissue were taken for histology and cell harvesting for FACS analysis. The survival rate of another group of treated animals was recorded relative to that of control untreated mice.
In a third experiment, using the identical SCID/MOLT-4 protocol, there were 6 groups: […]

[4] = biological target: T1, GPIb (glycocalicin) derived from platelets (Homo sapiens, UniProt P07359); assay: ELISA of monomer and dimer to GPIb (glycocalicin); format: binding
T1 construct: glycocalicin (soluble, extracellular fragment of GPIbα); from tissue; host or cells: human platelets
Experimental: An ELISA assay was performed to ascertain the differences in binding between the monomer (the Y1 scFv-also known as Y1-kak) and the dimer Y1-cys-kak (the cysteine dimer) for antigen GPIb (glycocalicin) derived from platelets. A polyclonal anti single chain antibody and/or a novel polyclonal anti-VL (derived from rabbits) and anti-rabbit HRP, were used to detect the binding to GPIb. […] For instance, to reach 0.8 OD units 12.8 μg/ml of monomer was used compared to only 0.1 μg/ml of dimer.
100 ml of purified glycocalicin was incubated in a 96 flat well maxisorp plates, overnight at 4 degrees celsius. The plate was washed with PBST (PBS+0.05% tween) 3 times, then […] of PBST-milk (PBST+2% Non fat milk), for 1 hr at room temperature. The plate was washed with PBST, and the monomer or dimer (100 ml) was added in PBST-milk at different concentrations for 1 hr at room temp. Then the plate was washed and anti-VL polyclonal (derived from immunized rabbits with VL derived from Y1) (1:100 diluted in PBST-milk) was added for an hour. The plate was washed and anti-rabbit HRP was added for an additional hour. The plate was washed 5 times and 100 μl TMB substrate was added for approximately 15 minutes then 100 μl of 0.5 H2SO4 was added to stop the reaction. The optical density of the plate was measured at 450 nm in an ELISA reader.

[5] = tested on: KG-1 cells; assay: AML KG-1 model in NOD/SCID mice; format: in vivo
Experimental: The in vivo mouse model for human AML uses SCID/NOD mice (Jackson Laboratories) inoculated with KG-1 cells derived from a human AML cell line.
In a first experiment, NOD/SCID mice were pretreated with 100 mg/kg CYTOXAN®. Four days post CYTOXAN® injection, KG-1 cells were injected intravenously into the tail vein of six groups of mice. (Table N, Groups 2 and 5-9). One group of mice (Table N, Group 1) was injected with PBS alone (control). [273.][273.]
Beginning 19 days post KG-1 injection mice were treated with: CONY1, Doxorubicin, CONY1-Doxorubicin conjugate, or Mylotarg®. (Mylotarg® is a monoclonal antibody (anti CD33) conjugated chemically to calcheamicin recently approved by the FDA for treatment of AML patients age 60 and over in a first relapse.) Mice were treated once or three times per week for three weeks. […]
Mice were sacrificed from 60 to 65 days post cell injection. Bone marrow and blood samples were analyzed by flow cytometry using mouse anti human CD34-FITC (IQP 144F) (or anti CD44-FITC (MCA89F, Serotec)) and Y1-Biotin/SAV-PE. […]
An additional experiment was performed in which SCID-NOD mice were i.v. injected with 3×10^4 MOLT-4 cells/mouse 5 days post treatment with cyclophosphamide. […] Bone marrow was extracted and analyzed by FACS analysis using a commercially available antiCD44 antibody for the detection of MOLT-4 cells in the mice bone marrow cell population.

Molecule | affinity relative to the full Y1 antibody [1] | half-life of blood clearance, second compartment [2] | liver weight versus mice treated with free Doxorubicin or left untreated ([3]; first experiment, 3 times per week for three weeks, sacrificed 32 days post cell inoculation) | tumor growth in the liver (liver weights, day 35) ([3]; second experiment, 75 μg/mouse i.v. three times/week from day 5) | tumor growth (based on liver weights) ([3]; third experiment, 75 μg/mouse) | survival ([3]; three groups with continued treatment) | concentration used to reach 0.8 OD units [4] | percentage of KG-1 cells in bone marrow ([5]; KG-1 cells incubated in vitro with scFv (0.25 mg/10^8 cells) before injection (groups 3 and 4)) | development of the malignancy (cancer cells in bone marrow, day 60) ([5]; additional experiment, 75 μg/mouse i.v. three times/week from day 14)
B1 | twofold lower | – | – | – | – | – | – | – | –
B2 | – | 3.17 h | weighted significantly less | markedly inhibited tumor growth in the liver | inhibited tumor growth | prolonged | 12.8 µg/mL | significantly lower percentage of KG-1 cells | no effect
